We go through ten molecules from patent US20260242485A1 (LEPU BIOPHARMA, published 2026).

Substitutions are numbered along the chain they refer to. Numbers in names are those of the source.

What is called EC50 (read off the curve) is the concentration at which the effect is half-maximal. Higher therefore signals weaker potency. As usually defined, the EC50 is the concentration giving half of the maximal effect. High values mean weaker potency, low ones greater potency.

Sequences and labels used below:
T1: human CD32B expressed on CHO-K1 cells (human, UniProt P31994 43-310)
T1 construct: whole, on cells; also called hCD32B
T1 sequence (looked up): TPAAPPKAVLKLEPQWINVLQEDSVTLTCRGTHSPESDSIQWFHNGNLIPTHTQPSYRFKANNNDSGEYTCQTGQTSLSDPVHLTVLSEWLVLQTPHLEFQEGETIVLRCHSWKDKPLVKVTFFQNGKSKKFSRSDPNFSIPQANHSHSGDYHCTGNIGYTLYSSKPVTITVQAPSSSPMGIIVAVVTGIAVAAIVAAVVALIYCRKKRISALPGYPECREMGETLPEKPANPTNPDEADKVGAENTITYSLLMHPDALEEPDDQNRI

B1: 45H6E8-z19p1 (antibody, V domains shown)
VH: QVQLVQSGAEVKKPGASVKVSCKVSGYTLTDYYMQWVRQAPGKGLEWIGWIDPEQGDTEYAPKFQGRVTMTADTSTDTAYMELSSLRSEDTAVYYCTTGGNYVDWGQGTTVTVSS
VL: DIQMTQSPSFLSASVGDRVTITCKASQNVGTAVAWYQQKPGKAPKLLIYSASNRYTGVPDRFSGSGSGTDFTLTISSLQPEDFATYFCQQYSSYPLLTFGQGTRLEIK
notes: PTM-removed (N to Q in VH CDR2) version of z19
B2: 45H6E8-z20p1 (antibody, V domains shown)
VH: B1 VH with I48M, V68A
VL: B1 VL
notes: PTM-removed version of z20
B3: 45H6E8-z19 (antibody, human IgG1, V domains shown)
VH: B1 VH with Q55N
VL: B1 VL
notes: Human IgG1 LALAPG constant region; also called HU-VH1-6 / HU-VL1-3
B4: 45H6E8-z20 (antibody, human IgG1, V domains shown)
VH: B1 VH with I48M, Q55N, V68A
VL: B1 VL
notes: Human IgG1 LALAPG constant region; also called HU-VH1-7 / HU-VL1-3
B5: 45H6E8-z17 (antibody, human IgG1, V domains shown)
VH: B1 VH with T30K, Q55N, R67K, V68A
VL: B1 VL
notes: Human IgG1 LALAPG constant region; also called HU-VH1-5 / HU-VL1-3
B6: 45H6E8-z13 (antibody, V domains shown)
VH: B1 VH with I48M, Q55N, A72E, T97A
VL: B1 VL
notes: also called HU-VH1-1 / HU-VL1-3
B7: CCR8-hIgG1DE (antibody)
heavy chain: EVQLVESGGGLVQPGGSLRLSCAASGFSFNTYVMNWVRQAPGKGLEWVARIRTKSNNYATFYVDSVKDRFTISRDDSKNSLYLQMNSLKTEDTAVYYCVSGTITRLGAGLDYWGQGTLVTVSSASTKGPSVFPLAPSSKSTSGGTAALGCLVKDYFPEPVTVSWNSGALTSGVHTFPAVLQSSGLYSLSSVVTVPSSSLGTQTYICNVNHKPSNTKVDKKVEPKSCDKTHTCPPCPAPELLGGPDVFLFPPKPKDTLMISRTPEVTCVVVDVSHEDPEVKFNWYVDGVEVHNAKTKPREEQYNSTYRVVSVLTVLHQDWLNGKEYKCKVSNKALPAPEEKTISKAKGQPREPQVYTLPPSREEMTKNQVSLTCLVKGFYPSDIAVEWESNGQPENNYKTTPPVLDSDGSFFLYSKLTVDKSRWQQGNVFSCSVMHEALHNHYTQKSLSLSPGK
light chain: DIVMTQSPLSLPVTPGEPASISCRSSKSLLHSNANTYLYWYLQKPGQSPQLLIYRMSNLASGVPDRFSGSGSGTAFTLKISRVEAEDVGVYYCMQHLEYPFTFGGGTKLEIKRTVAAPSVFIFPPSDEQLKSGTASVVCLLNNFYPREAKVQWKVDNALQSGNSQESVTEQDSKDSTYSLSSTLTLSKADYEKHKVYACEVTHQGLSSPVTKSFNRGEC
notes: also called eADCC CCR8 mAb with Fc-DE (S239D/I332E)
B8: CCR8-45H6E8-hIgG1 (bispecific antibody)
heavy: not shown
light: B7 light chain
notes: Format 1: anti-CCR8 IgG1 with wildtype Fc and 45H6E8 scFv at the C-terminus of each heavy chain; also called CCR8-45H6E8-hIgG1 BsAb; CCR8-45H6E8 WT BsAb
B9: CCR8-hIgG1Afucosylated (antibody)
heavy: not shown
light: B7 light chain
modifications: chain 1 pos 303 (EU N297): the Fc N-glycan lacks core fucose (afucosylated); the letters are unchanged
notes: also called anti-hCCR8 monoclonal antibody with Fc-afucosylated; copies: 2 + 2
B10: CCR8-hIgG1DLE (antibody)
heavy chain: EVQLVESGGGLVQPGGSLRLSCAASGFSFNTYVMNWVRQAPGKGLEWVARIRTKSNNYATFYVDSVKDRFTISRDDSKNSLYLQMNSLKTEDTAVYYCVSGTITRLGAGLDYWGQGTLVTVSSASTKGPSVFPLAPSSKSTSGGTAALGCLVKDYFPEPVTVSWNSGALTSGVHTFPAVLQSSGLYSLSSVVTVPSSSLGTQTYICNVNHKPSNTKVDKKVEPKSCDKTHTCPPCPAPELLGGPDVFLFPPKPKDTLMISRTPEVTCVVVDVSHEDPEVKFNWYVDGVEVHNAKTKPREEQYNSTYRVVSVLTVLHQDWLNGKEYKCKVSNKALPLPEEKTISKAKGQPREPQVYTLPPSREEMTKNQVSLTCLVKGFYPSDIAVEWESNGQPENNYKTTPPVLDSDGSFFLYSKLTVDKSRWQQGNVFSCSVMHEALHNHYTQKSLSLSPGK
light chain: B7 light chain
notes: also called eADCC CCR8 mAb with Fc-DLE (S239D/A330L/I332E)

T2 sequence (O75015 other isoform, or with tags, fused parts or gaps): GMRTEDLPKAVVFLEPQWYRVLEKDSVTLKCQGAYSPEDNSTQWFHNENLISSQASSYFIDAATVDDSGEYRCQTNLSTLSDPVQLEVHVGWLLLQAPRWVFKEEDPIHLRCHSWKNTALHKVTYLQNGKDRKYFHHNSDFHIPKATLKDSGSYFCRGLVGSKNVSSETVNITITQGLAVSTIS

The first experiment has as its target T2, human CD16B-NA1 expressed on CHO-K1 cells (human, UniProt O75015 17-200).
T2 construct: whole, on cells; also called hCD16B-NA1; CHO-K1-hCD16B-NA1
Nature of the experiment: flow cytometry, CHO-K1-hCD16B-NA1 cells, geometric mean. For orientation: A flow cytometer gives signals particle by particle.
As to B1, the binding result is “no binding (tested: 100 nM)”.
In the case of B2, the binding result is given as “no binding (tested: 100 nM)”.

In the next experiment the target is T3, human GPC3 on HepG2 cells (human, UniProt P51654 25-554).
T3 construct: whole, on cells; also called GPC3-positive HepG2 cells
T3 sequence (P51654 25-554 limits assumed): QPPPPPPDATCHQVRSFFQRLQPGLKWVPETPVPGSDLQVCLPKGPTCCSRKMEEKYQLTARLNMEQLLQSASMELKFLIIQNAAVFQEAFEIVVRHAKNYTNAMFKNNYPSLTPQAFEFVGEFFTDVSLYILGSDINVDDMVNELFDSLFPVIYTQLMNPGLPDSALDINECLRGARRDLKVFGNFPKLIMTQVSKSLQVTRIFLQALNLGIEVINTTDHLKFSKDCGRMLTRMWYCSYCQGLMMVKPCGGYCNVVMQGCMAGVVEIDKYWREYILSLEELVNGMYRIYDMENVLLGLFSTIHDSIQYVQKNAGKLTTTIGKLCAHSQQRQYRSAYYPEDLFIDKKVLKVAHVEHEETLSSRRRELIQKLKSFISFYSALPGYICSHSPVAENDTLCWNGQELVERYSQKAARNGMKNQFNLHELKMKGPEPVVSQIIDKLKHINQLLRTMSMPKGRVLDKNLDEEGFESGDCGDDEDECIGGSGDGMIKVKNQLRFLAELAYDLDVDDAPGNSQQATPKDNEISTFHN
The experiment is described as follows: flow cytometry, HepG2 cells (GPC3 positive), geometric mean.
Consider B1, for which the binding result is recorded as “no binding (tested: 100 nM)”.

The next experiment deals with T4, cynomolgus CD16 expressed on CHO-K1 cells (cynomolgus, UniProt Q8SPW2 17-254).
T4 construct: whole, on cells; also called cyno CD16; CHO-K1-cynoCD16
T4 sequence (Q8SPW2 17-254): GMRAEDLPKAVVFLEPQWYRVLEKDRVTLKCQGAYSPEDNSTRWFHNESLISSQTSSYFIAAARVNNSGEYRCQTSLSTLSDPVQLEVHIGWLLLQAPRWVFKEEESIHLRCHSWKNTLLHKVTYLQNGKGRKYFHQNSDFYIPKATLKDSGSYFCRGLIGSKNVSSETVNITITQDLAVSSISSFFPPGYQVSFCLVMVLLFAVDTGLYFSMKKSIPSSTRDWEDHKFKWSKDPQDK
The experiment is described as follows: flow cytometry, CHO-K1-cyno CD16 cells, Alexa Fluor 647 anti-human IgG Fc, geometric mean. As for the experimental part:
(§1) In order to evaluate the binding activity of the chimeric mAbs to human CD16A expressed on cells, cell-based binding assay was employed as followed. […] The antibody dilutions were incubated with 1×10⁵ indicated cells in the 96-well microplate for one hour at 4° C. The antibodies binding to the antigen on the cell surface were detected with PE fluorophore-conjugated anti-human IgG Fc secondary antibodies (ThermoFisher scientific, Cat. No. 12-4998-82) at a dilution rate of 1:1000. Cells were analyzed by flow cytometer LSRFortessa Cell Analyzer (BD Biosciences). Data were analyzed with Flowjo 10.0 software. The graph and statistics analysis were generated with four-parameter nonlinear regression curve fit in Graphpad Prism 9 software.
(§2) The assay was performed following the protocol described above. The antibodies binding to the antigen on the cell surface were detected with Alexa Fluor® 647 AffiniPure™ F(ab′)₂ fragment goat anti-human IgG Fcγ fragment specific secondary antibody (Jackson Immuno Research, Cat. No. 109-606-098) at a dilution rate of 1:2000.
In the case of B3, the “EC50 (read off the curve)” value was approximately 1 nM.
For B4, the “EC50 (read off the curve)” value was approximately 1 nM.
Take B5: the “EC50 (read off the curve)” value was approximately 1 nM.
For B6, the “EC50 (read off the curve)” value is approximately 1 nM.

The next experiment deals with T5, human CD16A-158F expressed on CHO-K1 cells (human, UniProt P08637 17-254).
T5 construct: whole, on cells
T5 sequence (P08637 17-254): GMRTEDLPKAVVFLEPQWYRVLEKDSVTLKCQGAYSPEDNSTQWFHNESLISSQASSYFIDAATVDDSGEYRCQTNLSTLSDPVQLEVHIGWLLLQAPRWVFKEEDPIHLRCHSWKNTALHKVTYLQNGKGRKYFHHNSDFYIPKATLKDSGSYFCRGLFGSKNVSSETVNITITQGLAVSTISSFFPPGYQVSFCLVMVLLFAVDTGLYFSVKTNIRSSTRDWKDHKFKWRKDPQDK
The experiment is described as follows: flow cytometry, CHO-K1-hCD16A-158F cells, geometric mean. The source says:
(§3) The purpose of the assay was to evaluate the binding of BsAb to each of the hFcγRs.
Molecule B7 returned an EC50 of 1.4 nM.
In turn, B8 had an EC50 of 0.095 nM.
For the molecule B9, the EC50 was determined as 3.5 nM.
B10 had an EC50 of 1.2 nM.

In a further experiment the target is T6, human CD16A-158V expressed on CHO-K1 cells (human, UniProt P08637 17-254).
T6 construct: whole, on cells; also called hCD16A-158V; CHO-K1-hCD16A-158V
T6 sequence (P08637 17-254 F176V): as the sequence (P08637 17-254) above, with F160V counted along it
Nature of the experiment: flow cytometry, CHO-K1-hCD16A-158V cells, Alexa Fluor 647 anti-human IgG Fc, geometric mean. As for the experimental part:
as §1, §2
Turning to B3, the “EC50 (read off the curve)” value was approximately 0.4 nM.
With B4, the “EC50 (read off the curve)” value is approximately 0.4 nM.
Consider B5, for which the “EC50 (read off the curve)” value was approximately 0.4 nM.
In the case of B6, the “EC50 (read off the curve)” value was approximately 0.4 nM.

The next experiment deals with T6, human CD16A-158V expressed on CHO-K1 …. Nature of the experiment: flow cytometry, CHO-K1-hCD16A-158V cells, geometric mean.
Source text: as §3
As for B7, it took 0.8 nM to reach a half-maximal effect (EC50).
B8 displayed an EC50 of 0.1 nM.
Same read-out and setting: the value for B9 was 0.45 nM.
B10 showed an EC50 of 0.75 nM.

A further experiment has as its target T5, human CD16A-158F expressed on CHO-K1 …. Nature of the experiment: flow cytometry, CHO-K1-hCD16A-158F cells, geometric mean. This is another data set of the same source. As for the experimental part:
as §1
(§4) The assay was performed following the protocol described above.
In the case of B3, the “EC50 (read off the curve)” value was approximately 0.4 nM.
B4: the “EC50 (read off the curve)” value was approximately 0.4 nM.
For the molecule B1, the “EC50 (read off the curve)” value was approximately 0.4 nM.
Regarding B2, the “EC50 (read off the curve)” value was approximately 0.4 nM.

Another experiment has the same target. The experiment is described as follows: flow cytometry, CHO-K1-hCD16A-158F cells, Alexa Fluor 647 anti-human IgG Fc, geometric mean. As for the experimental part: as §1, §2
B3: the “EC50 (read off the curve)” value was approximately 0.4 nM.
On the same count and under the same terms, the value for B4 was approximately 0.4 nM.
Turning to B5, the “EC50 (read off the curve)” value was approximately 0.4 nM.
The same measure, in the same setting: the value for B6 was approximately 0.4 nM.

In a further experiment the target is T6, human CD16A-158V expressed on CHO-K1 …. Nature of the experiment: flow cytometry, CHO-K1-hCD16A-158V cells, geometric mean. The source holds these as a separate data set. As for the experimental part: as §1, §4
Regarding B3, the “EC50 (read off the curve)” value was approximately 0.4 nM.
On to B4, for which the “EC50 (read off the curve)” value is approximately 0.4 nM.
On to B1, for which the “EC50 (read off the curve)” value is approximately 0.4 nM.
The same measure, in the same setting: in the case of B2 it was approximately 0.4 nM.

The target of another experiment is T4, cynomolgus CD16 expressed on CHO-K1 …. The experiment is described as follows: flow cytometry, CHO-K1-cyno CD16 cells, geometric mean. As for the experimental part: as §1, §4
On to B3, for which the “EC50 (read off the curve)” value was approximately 0.7 nM.
In the case of B4, the “EC50 (read off the curve)” value was approximately 0.8 nM.
With B1, the “EC50 (read off the curve)” value was approximately 0.7 nM.
Turning to B2, the “EC50 (read off the curve)” value is approximately 0.7 nM.

The target of the next experiment is T5, human CD16A-158F expressed on CHO-K1 …. The experiment is described as follows: flow cytometry, CHO-K1-hCD16A-158F cells, geometric mean. The source holds these as a separate data set.
With B1, the concentration for a half-maximal effect (EC50 (read off the curve)) is approximately 0.5 nM.

In a further experiment the target is T1, human CD32B expressed on CHO-K1 cells. The experiment is described as follows: flow cytometry, CHO-K1-hCD32B cells, geometric mean.
Source text: as §3
For the molecule B7, the binding result is listed as “binds”.
The same measure, in the same setting: the value for B8 was “binds”; that for B9 was “binds”.
In the case of B10, the binding result is “binds”.

A further experiment deals with T6, human CD16A-158V expressed on CHO-K1 …. The experiment is described as follows: flow cytometry, CHO-K1-hCD16A-158V cells, geometric mean. The source holds these as a separate data set.
As for B1, the “EC50 (read off the curve)” value was approximately 0.5 nM.

For the next experiment, the target named is T2, human CD16B-NA1 expressed on CHO-K1 …. The experiment is described as follows: flow cytometry, CHO-K1-hCD16B-NA1 cells, Alexa Fluor 647 anti-human IgG Fc, geometric mean. As for the experimental part:
as §1, §2
Regarding B3, the binding result is recorded as “no binding (tested: 100 nM)”.
With B4, the binding result is recorded as “no binding (tested: 100 nM)”.
Consider B5, for which the binding result is on record as “no binding (tested: 100 nM)”.
Regarding B6, the binding result was “no binding (tested: 100 nM)”.
